# T1: MUC1 15-mer Ac-PDTRPAPGSTAPPAL-NH2
# T1 construct: coated on a biotin chip
# T1 peptide: Ac-PDTRPAPGSTAPPAL-NH2
# B1: PH1 Fab antibody (Fab, V domains shown)
# VH: QVQLVQSGGGLVQPGGSLRLSCAASGFTFRSNAMGWVRQAPGKGLEWVSGISGSGGSTYYADSVKGRFTISRDNSKNTLYLQMNSLRAEDTAVYYCAKHTGGGVWDPIDYWGQGTLVTVSS
# VL: EIVLTQSPLSLPVTPGEPASISCRSSQSLLHSNGYTYLDWYLQKPGQSPQLLIYSGSHRASGVPDRFSGSVSGTDFTLRISRVEAEDVGVYYCMQGLQSPFTFGPGTKVDIKR
# notes: Human Fab from a naive phage library; also called Fab PH1; WT-PH1
# B2: PH1-IgG1 (antibody, V domains shown)
# VH: QVQLVQSGGGLVQPGGSLRLSCAASGFTFRSNAMGWVRQAPGKGLEWVSGISGSGGSTYYADSVKGRFTISRDNSKNTLYLQMNSLRAEDTAVYYCAKHTGGGVWDPIDYWGQGTLVTVSS
# VL: EIVLTQSPLSLPVTPGEPASISCRSSQSLLHSNGYTYLDWYLQKPGQSPQLLIYSGSHRASGVPDRFSGSVSGTDFTLRISRVEAEDVGVYYCMQGLQSPFTFGPGTKVDIKR
# notes: Fully human gamma-1/kappa IgG1 from CHO-K1 clone 7F; FITC-labeled or biotinylated in some assays; also called recombinant human MUC1-specific IgG1; PH1-IgG1-FITC
# B3: 7F9 (Fab, V domains shown)
# VH: QVQLVQSGGGLVQPGGSLRLSCAASGFTFRSNAMGWVRQAPGKGLEWVSGISGSGGSTYYADSVKGRFTISRDNSKNTLYLQMNSLRAEDTAVYYCAKHTGGGVWDPIGYWGQGTLVTVSS
# VL: EIVLTQSPLSLPVTPGEPASISCRSSQSLLHSNGYTYLDWYLQKPGQSPQLLIYSGSHRASGVPDRFSGSVSGTDFTLRISRVEAEDVGVYYCMQGLQSPFTFGPGTKVDIKR
# notes: PH1 Fab variant; also called clone 7F9
# B4: clone 22 (unselected SPIKE library) (Fab, V domains shown)
# VH: QVQLVQSGGGLVQPGGSLRLSCAASGFTFRSNAMGWVRQAPGKGLEWVSGISGSGGSTYYADSVKGRFTISRDNSKNTLYLQMNSLRAEDTAVYYCARHTGGGVWDPIYYWGQGTLVTVSS
# VL: EIVLTQSPLSLPVTPGEPASISCRSSQSLLHSNGYTYLDWYLQKPGQSPQLLIYSGSHRASGVPDRFSGSVSGTDFTLRISRVEAEDVGVYYCMQGLQSPFTFGPGTKVDIKR
# B5: clone 21 (unselected SPIKE library) (Fab, V domains shown)
# VH: QVQLVQSGGGLVQPGGSLRLSCAASGFTFRSNAMGWVRQAPGKGLEWVSGISGSGGSTYYADSVKGRFTISRDNSKNTLYLQMNSLRAEDTAVYYCANQTGGGVWDPIDYWGQGTLVTVSS
# VL: EIVLTQSPLSLPVTPGEPASISCRSSQSLLHSNGYTYLDWYLQKPGQSPQLLIYSGSHRASGVPDRFSGSVSGTDFTLRISRVEAEDVGVYYCMQGLQSPFTFGPGTKVDIKR
# B6: clone 25 (unselected SPIKE library) (Fab, V domains shown)
# VH: QVQLVQSGGGLVQPGGSLRLSCAASGFTFRSNAMGWVRQAPGKGLEWVSGISGSGGSTYYADSVKGRFTISRDNSKNTLYLQMNSLRAEDTAVYYCAKHTGVGVWHPIYYWGQGTLVTVSS
# VL: EIVLTQSPLSLPVTPGEPASISCRSSQSLLHSNGYTYLDWYLQKPGQSPQLLIYSGSHRASGVPDRFSGSVSGTDFTLRISRVEAEDVGVYYCMQGLQSPFTFGPGTKVDIKR
# B7: clone 23 (unselected SPIKE library) (Fab, V domains shown)
# VH: QVQLVQSGGGLVQPGGSLRLSCAASGFTFRSNAMGWVRQAPGKGLEWVSGISGSGGSTYYADSVKGRFTISRDNSKNTLYLQMNSLRAEDTAVYYCAKPTGGGAWDPIDYWGQGTLVTVSS
# VL: EIVLTQSPLSLPVTPGEPASISCRSSQSLLHSNGYTYLDWYLQKPGQSPQLLIYSGSHRASGVPDRFSGSVSGTDFTLRISRVEAEDVGVYYCMQGLQSPFTFGPGTKVDIKR
# B8: clone 20 (unselected SPIKE library) (Fab, V domains shown)
# VH: QVQLVQSGGGLVQPGGSLRLSCAASGFTFRSNAMGWVRQAPGKGLEWVSGISGSGGSTYYADSVKGRFTISRDNSKNTLYLQMNSLRAEDTAVYYCASHTGGRGWDPIDYWGQGTLVTVSS
# VL: EIVLTQSPLSLPVTPGEPASISCRSSQSLLHSNGYTYLDWYLQKPGQSPQLLIYSGSHRASGVPDRFSGSVSGTDFTLRISRVEAEDVGVYYCMQGLQSPFTFGPGTKVDIKR
# B9: 5C8 (Fab, V domains shown)
# VH: QVQLVQSGGGLVQPGGSLRLSCAASGFTFRSNAMGWVRQAPGKGLEWVSGISGSGGSTYYADSVKGRFTISRDNSKNTLYLQMNSLRAEDTAVYYCAKHTGRGVWDPIGYWGQGTLVTVSS
# VL: EIVLTQSPLSLPVTPGEPASISCRSSQSLLHSNGYTYLDWYLQKPGQSPQLLIYSGSHRASGVPDRFSGSVSGTDFTLRISRVEAEDVGVYYCMQGLQSPFTFGPGTKVDIKR
# notes: PH1 Fab variant; also called clone 5C8
# What was measured:
# [1] = molecular target: T1, MUC1 15-mer Ac-PDTRPAPGSTAPPAL-NH2; experiment: SPR (BIAcore 2000), 1:1 Langmuir at steady state, 50 RU peptide; 15-mer surface; Fab
# Protocol: (§1) The selected PH1-IgG1 and the Fab PH1 antibodies were evaluated for their binding characteristics by surface plasmon resonance on a BIAcore 2000 apparatus (BIAcore AB, Uppsala, Sweden). A biotin chip was coated with a MUC1 15-mer, containing the minimal PH1 epitope, PAP (Ac-PDTRPAPGSTAPPAL-NH₂ (SEQ ID NO:40) (see Example 2, above), 50 RU and 320 RU) and 60-mer (NH₂-([…])₃-COOH (SEQ ID NO:8) (von Mensdorff-Pouilly et al., Tumor Biol., 19: 186-195 (1998), 50 RU) in HBS-EP buffer (Pharmacia) a surface, blocked with biotin (15 RU), was used as a negative control. The Fab PH1 and PH1-IgG1 were injected in HBS-EP buffer. To minimize rebinding of the antigen binding molecules, a speed of 30 μl/sec was used. Affinity calculation was performed with computer programs provided by BIAcore (BIAEvaluation-version3, BIACore AB). […] The affinity for the PH1 Fab antibody was calculated according to a 1:1 Langmuir stoichiometry at steady state (Chi²: 50.6). Because of the two binding places on the PH1-IgG1, the avidity was calculated as an apparent avidity constant using 1:1 Langmuir determination with mass transfer limitation (Chi²: 42).
# (§2) The affinity of the antibody was determined using BIAcore. Affinities of the Fab PH1 were calculated to be an average of 1.4 μM for binding to the 15-mer and 60-mer MUC1 peptide antigen coated surfaces.
# [2] = molecular target: T1, MUC1 15-mer Ac-PDTRPAPGSTAPPAL-NH2; experiment: SPR (BIAcore 2000), apparent avidity constant, 1:1 Langmuir with mass transfer limitation, low density surface; 15-mer, low density surface; IgG1 avidity
# Protocol: as §1, §2
# [3] = molecular target: T1, MUC1 15-mer Ac-PDTRPAPGSTAPPAL-NH2; experiment: SPR (BIAcore) Kd assay on MUC1 15-mer
# Protocol: (§3) The selected PH1 and the affinity-matured antibodies were evaluated for affinity by surface plasmon resonance (SPR) on a BIAcore 2000 apparatus (BIAcore AB, Uppsala, Sweden). Channels of a biotin chip were coated with a MUC1 15-mer, containing the minimal PH1 epitope, PAP, (Ac-PDTRPAPGSTAPPAL-NH₂, (SEQ ID NO:40) 50 RU or 320 RU) or a 60-mer (NH₂-([…])₃-COOH (i.e., containing three copies of SEQ ID NO:8 (von Mensdorff-Pouilly et al., Tumor Biol., 19: 186-195 (1998), 50 RU) in HBS-EP buffer (Pharmacia). One surface was blocked with biotin (15 RU) and used as a negative control. The antibodies were injected in HBS-EP buffer. To minimize rebinding of the antigen binding fragments, the flow speed was 30 μl/sec. Affinity calculation was performed with the BIA-evaluation software provided by the BIAcore. The affinities of the Fabs were calculated according to a 1:1 stoichiometry at steady state.
# (§4) The CDR3 variants were extensively tested in BIAcore for the kinetics of the MUC1 peptide interaction. […] Using this off-rate screening with Fabs in the periplasmic extract of E. coli cultures, the clones in Table 9 as well as many more were screened for improvement in off-rate. […] To get accurate measurements, a Kd assay on the BIAcore was used with the MUC1 15-mer (there was no difference in the kinetics of interaction when the MUC1 60-mer was used, data not shown). […]
# [4] = molecular target: T2, MUC1 60-mer peptide NH2-(…)3-COOH (biotinylated in the ELISAs and selections); experiment: ELISA, soluble Fab, biotinylated MUC1 60-mer; relative signal
# T2 construct: also called biotinylated MUC1 60-mer
# Protocol: as §3, with “Soluble Fabs were produced as described (Roovers et al., Br. J. Cancer, 78: 1407-16 (1998)). ELISAs were performed as described by Henderikx et al. (Cancer Res., 58: 4324-4332 (1998)), except the biotinylated MUC1 60-mer was used. The selected” for “The selected”
# [5] = molecular target: T2, MUC1 60-mer peptide NH2-(…)3-COOH; experiment: phage ELISA on MUC1 antigen (biotinylated MUC1 60-mer)
# [6] = molecular target: T2, MUC1 60-mer peptide NH2-(…)3-COOH; experiment: SPR (BIAcore), MUC1 60-mer peptide antigen; the 3.5-fold end is tied to 5C8 by paragraph 206; best variant, 5C8; Fab on MUC1 peptide chip
# Protocol: as §3, §4
binder,measurement,setting,value
B1,Kd,[1],1400 nM
B2,Kd,[2],8.3 nM
B3,fold improvement of affinity over wild type PH1 Fab,[3],< 2 fold
same,binding result,[4],binds
B4,ELISA OD450,[5],0.663 OD450
B5,ELISA OD450,[5],0.108 OD450
B6,ELISA OD450,[5],0.315 OD450
B7,ELISA OD450,[5],0.373 OD450
B8,ELISA OD450,[5],0.109 OD450
B9,fold improvement of Kd over wild type PH1 Fab,[3],3.5 fold
same,Kd,[6],~400 nM

# — US20020146750A1 (published 2002)
